{"source": "paper PMC6498573", "about": "“Genomic analyses of aminoacyl tRNA synthetases from human-infecting helminths” (BMC Genomics, 2019)", "key": {"[1]": {"molecular_target": "T1, Onchocerca volvulus prolyl tRNA synthetase (OvPRS) (Onchocerca volvulus, UniProt A0A2K6VID2)", "T1 construct": "OvPRS construct of 497 amino acids (279–775; 57 kDa), MBP-His tag removed by TEV", "T1 sequence (A0A2K6VID2 279-775)": "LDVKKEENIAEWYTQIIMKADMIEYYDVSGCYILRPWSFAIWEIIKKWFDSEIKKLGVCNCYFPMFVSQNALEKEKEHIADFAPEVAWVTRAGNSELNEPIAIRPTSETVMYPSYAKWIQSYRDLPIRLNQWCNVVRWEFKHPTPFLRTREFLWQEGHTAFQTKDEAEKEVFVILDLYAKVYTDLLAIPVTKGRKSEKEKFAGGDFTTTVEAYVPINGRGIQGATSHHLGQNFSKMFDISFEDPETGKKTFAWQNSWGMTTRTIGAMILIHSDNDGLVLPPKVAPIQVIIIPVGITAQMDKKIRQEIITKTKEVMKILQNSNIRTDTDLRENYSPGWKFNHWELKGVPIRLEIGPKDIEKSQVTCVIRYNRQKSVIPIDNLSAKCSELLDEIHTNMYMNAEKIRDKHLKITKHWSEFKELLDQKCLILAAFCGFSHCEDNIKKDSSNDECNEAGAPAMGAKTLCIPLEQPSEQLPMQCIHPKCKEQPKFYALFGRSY", "experiment": "malachite green aminoacylation assay with recombinant purified OvPRS ([…] proline, […] ATP, […] enzyme)", "type": "biochemical"}, "purified protein [2]": {"substrate": "Nc1ncnc2c1ncn2[C@@H]1O[C@H](COP(=O)(O)OP(=O)(O)OP(=O)(O)O)[C@@H](O)[C@H]1O", "experiment": "purified protein", "type": "biochemical, Onchocerca volvulus"}, "purified protein [3]": {"substrate": "O=C(O)[C@@H]1CCCN1", "experiment": "purified protein", "type": "biochemical, Onchocerca volvulus"}}, "data": [{"molecule": "O=C(CC1NCCCC1O)Cn1cnc2cc(Br)c(Cl)cc2c1=O", "note": "(stereo not drawn) [HF, halofuginone]", "values": [{"measurement": "IC50", "setting": "[1]", "value": "~30", "unit": "nM"}]}, {"molecule": "Onchocerca volvulus prolyl tRNA synthetase (OvPRS) (Onchocerca volvulus) (protein, OvPRS construct of 497 amino acids (279–775; 57 kDa), MBP-His tag removed by TEV) LDVKKEENIAEWYTQIIMKADMIEYYDVSGCYILRPWSFAIWEIIKKWFDSEIKKLGVCNCYFPMFVSQNALEKEKEHIADFAPEVAWVTRAGNSELNEPIAIRPTSETVMYPSYAKWIQSYRDLPIRLNQWCNVVRWEFKHPTPFLRTREFLWQEGHTAFQTKDEAEKEVFVILDLYAKVYTDLLAIPVTKGRKSEKEKFAGGDFTTTVEAYVPINGRGIQGATSHHLGQNFSKMFDISFEDPETGKKTFAWQNSWGMTTRTIGAMILIHSDNDGLVLPPKVAPIQVIIIPVGITAQMDKKIRQEIITKTKEVMKILQNSNIRTDTDLRENYSPGWKFNHWELKGVPIRLEIGPKDIEKSQVTCVIRYNRQKSVIPIDNLSAKCSELLDEIHTNMYMNAEKIRDKHLKITKHWSEFKELLDQKCLILAAFCGFSHCEDNIKKDSSNDECNEAGAPAMGAKTLCIPLEQPSEQLPMQCIHPKCKEQPKFYALFGRSY", "values": [{"measurement": "Km", "setting": "purified protein [2]", "value": "18.9 ± 2.2", "unit": "µM"}, {"measurement": "Km", "setting": "purified protein [3]", "value": "24.17 ± 11", "unit": "µM"}]}]}
